Assay results reported in a protein production outcome set (Wang et al. 2014).

test: label from the status in PepcDB records

Sequence	protein production
PTEFLYTSKIAAISWAATGGRQQRVYFQDLNGKIREAQRGGDNPWTGGSSQNVIGEAKLFSPLAAVTWKSAQGIQIRVYCVNKDNILSEFVYDGSKWITGQLGSVGVKVGSNSKLAALQWGGSESAPPNIRVYYQKSNGSGSSIHEYVWSGKWTAGASFGSTVPGTGIGATAIGPGRLRIYYQATDNKIREHCWDSNSWYVGGFSASASAGVSIAAISWGSTPNIRVYWQKGREELYEAAYGGSWNTPGQIKDASRPTPSLPDTFIAANSSGNIDISVFFQASGVSLQQWQWISGKGWSIGAVVPTGTPAGW	not failed
PTLYEKIQQANEEAVTRIIQSKPILVGFDKAINVMPDMTETTILHAGPPITYENMCGPMKGAVQGALVFEGLAKDLADADRVARSGAITFSPCHEHDAVGSMAGVTSPNMYVHIIKNETYGNTAFTNLSEQLAKVLRFGANDQSVVDRLIWMRDVLGPLLHDAMTFCPEGIDLRLMLSQALHMGDECHNRNVAGSTLLVQALTPYMVQTDFSREQLKEVFEFLGSSDYFSGPTWMGAAKCALDAGHNVENSTIVTTMCRNGVEFGIRVSGIGGNHWFTGPAQRVIGPMFAGYTQEDAGLDMGDSAITETYGVGGFAMAAAPAIVPLVGGTVAEALNYSKEMLEITTKENPNVTIPVLDFMGIPTGIDVLKVLETGMLPVINTAIAHKEPGIGMIGAGLTNPPANVFNEALKALVATIN	not failed
PTPKTELVQKFRVQYLGMLPVDRPVGMDTLNSAIENLMTSSSKEDWPSVNMNVADATVTVISEKNEEEVLVECRVRFLSFMGVGKDVHTFAFIMDTGNQRFECHVFWCEPNAANVSEAVQAACSGPSSGIEGRGSSGSSGSSGSSGDAAVTPEERHLSKMQQNGYENPTYKFFEQMQN	not failed
PVPGIRCRDAFSAASGIIDKMACVPELAVSEISAPRIVSSLAGDGHALFVANSMPARDMDLYAAPVAQKPLQVALNRGVSGIDGIISTAAGFSAGLGKPTTLLIGDISFLHDLNALCLLNHPWNPLIVIVLNNHGGSIFSFLPIASQTDRLDECFATPQNFSIESAARTFGIDYACPETNGDFTQLYAEALTTKKSLIIEIRSDREKNLLLHRSLKARLDPVFEKADC	failed
QAIHNDKSLLSPFSELNTDNRTKREESGSTFKEQKGGEFSKLLKQSINELNNTQEQSDKALADMATGQIKDLHQAAIAIGKAETSMKLMLEVRNKAISAYKELLRTQI	failed
QAQITGRPEWIWLALGTALMGLGTLYFLVKGMGVSDPDAKKFYAITTLVPAIAFTMYLSMLLGYGLTMVPFGGEQNPIYWARYADWLFTTPLLLLDLALLVDADQGTILALVGADGIMIGTGLVGALTKVYSYRFVWWAISTAAMLYILYVLFFGFTSKAESMRPEVASTFKVLRNVTVVLWSAYPVVWLIGSEGAGIVPLNIETLLFMVLDVSAKVGFGLILLRSRAIFGEAEAPEPSAGDGAAATSD	failed
QDKKEQFKQLFQIVEQSFGRPLSPYEIETLNQWIDVDHHDLSVIQAALDEALSQNKLSFKYIDRILLNWKKNNV	not failed
QDVLRGTLNLYCSVTAAYSHLPQLLERFRQEHPFVEIALTTGDAANALAEIQQNRADIAIAALPDPFPATLHFAKIDDVPLSLIAPTMRCAVQQQISQTQIDWARVPFIIPDHGPGRRRADNWFKQMGISPNIYAQVSGQEAIASMVALG	failed
QESVEDSLATVKVVLIPVGQEIVIPFKVDTILKYLKDHFSHLLGIPHSVLQIRYSGKILKNNETLVQHGVKPQEIVQVEIFSTNPDLYPVRRIDGLTDVSQIITV	not failed
QGEEMNRSQEVTRDEESTRSEEVTREEMAAAGLTVTVTHSNEKHDLHVTSQQGSSEPVVQDLAQVVEEVIGVPQSFQKLIFKGKSLKEMETPLSALGIQDGCRVMLIGKKNSPQEEV	failed
QGHWFAIHSGTLGIMVNVDALGGLPVPQSWADLLKPEYKGMVGYLDPSSAFVGYVSAVAINQAMGGSLDNFGPAIDYFQKLAKNSPIVPKQTAYARALSGELPILVDYDFNAYRARYKDKANVAFVIPKEGTIGVPYVMSMVAKAPHRANAEKVLDFVLSDAGQALWAKAYLRPVR	failed
QHTEERELKKRLMNTARTVSEMTEVKEALARKKQTEAVRHAVEEIRMINEADYIVVMDMNHIRYTHPVSTSIGKKSEGADEEAAFAEHIYFSEAKGEIGTAVRAFYPVKDQDLNQIGVVLVGKTLPGIAD	failed
QIKIRKATKEDWEKIYQLYNSLSDEDLYLRFFHLYRITEEDAKKIASNEDHVTFLAEVDGKVVGEASLHKDGEFSLVVHRNYRTLGIGTLLVKTLIEEAKKSGLSTVKFYTLPENTPMIKIGRKLGFKMRFYEDEVYGEMRL	not failed
QKQYWVCNSSDASISYTYCDKMQYPISINVNPCIELKGSKGLLHIFYIPRRDLKQLYFNLYITVNTMNLPKRKEVICRGSDDDYSFCRALKGETVNTTISFSFKGIKFSKGKYKCVVEAISGSPEEMLFCLEFVILHQPNSN	failed
QKVKTIFPHTAGNNKTLLSFAQGDVLTLLIPEEKDGWLYGEHDTTKARGWFPSSYTKLL	not failed
QKYQALLANNVENTAKEALHQLAYTGREYNNIQDQIETISDLLGHSQSLYDYLREPSKANLTILENMWSSVARNQKLYKQIRFLDTSGTEKVRIKYDFKTSIAGPSLILRDKSAREYFKYAQSLDNEQISAWGIELERDKGELVYPLSPSLRILMPISVNDVRQGYLVLNVDIEYLSSLLNYSPVRDFHIELVKHKGFYIASPDESRLYGDIIPERSQFNFSNMYPDIWPRVVSEQAGYSYSGEHLIAFSSIKFVSNEPLHLIIDLSNEQLSKRATRDINDLIQES	not failed
QLLEPIRDFEARKCPVHGKTMELFCQTDQTCICYLCMFQEHKNHSTVTVEEAKAEKETE	not failed
QLSSVTDSKKKKTILDQIFVWEQNLEQFQMDLFRFRCYLASLQGGELPNPKRLLAFASRPTKVAMGRLGIFSVSSFHALVAARTGETGVRRRTQAM	failed

Sequence	protein production
QNYWAVFDANKETLIVQTCSGLGLTAIDHLYPPHILPLDTDNETLGTTVLQALANSRTFVYDSPEDQDFFDTEKIRQRYEDWVAKLCGNLGYKTRRALFKNMMSVDIWLHNGCLKISPSRHVKLEAWNAIDADDVILSLDNSPEEIGAGLKLALSHC	failed
QPTIVLDTDYNIIAANTAYQRQFGVAGKPHVGAKCYRVSHQFAVPCDQAGEHCPMRKAHDSRVPERMLHIHHTPRGPEHVDVELRPIIGQDGTVVAYVERLSSVAVASVQPQQKG	failed
QQMETGDQRFGDLVFRQLAPNVWQHTSYLDMPGFGAVASNGLIVRDGGRVLVVDTAWTDDQTAQILNWIKQEINLPVALAVVTHAHQDKMGGMDALHAAGIATYANALSNQLAPQEGMVAAQHSLTFAANGWVEPATAPNFGPLKVFYPGPGHTSDNITVGIDGTDIAFGGCLIKDSKAKSLGNLGDADTEHYAASARAFGAAFPKASMIVMSHSAPDSRAAITHTARMADKLR	not failed
QQVTEPEETKETLQHLLDDTASGKMVQLTFVGESAEQPLITEMIRNFNVSVNILQGKISQTKDGAYGSLFIHIDGDEEEVQNVIRFINDKQVKAEVITNV	not failed
QVPKKQTTSKILVRNIPFQANQREIRELFSTFGELKTVRLPKKMTGTGAHRGFGFVDFITKQDAKKAFNALCHSTHLYGRRLVLEWADSEVTVQ	not failed
QWDITLIGHEDDLSQLSHEKLSKLAACIEYSPYPMVEIDYFGNLTYLNTATKEKFPSIQKDSMAHPLLKDIIPQREDTPIYYLRTREVQIGDKFYEQHIHYPAESQFIRSYIFDITERKVIEQSIHYQAFYDPLTDLPNRFLFKQELGKVLSNVQNQSSVLGLVLLGFRELQSLNDLLG	failed
QYMSYDRNAFGNQVMGQFGNASGSVTSNKIFGFRSDILLQLLNMKISKDHQELNQNQVIQLVPTYLQQLYNEMNNGDPTMYKDLLNLHSNIVHPSGMYMNPLLYANQNPNAAGYNQGTGGVPPMAGGSVAHGPPAAPAP	failed
RAELRGVVRVAASEVVGAEVLPPLVARLRQACPNIVIELMLSNRFQDLLHREADIAVRMVAPQQEQLIARRLGRIELGLHATAAYLTRQGLPATLDDLASHALIGFDSATPLVRRALQAYPRFQREAFAMRTDSDLAQLSLIRAGA	failed
RALRRRGGDAAAKLAGLVLIAPAPDFTEALMWKGFSPEIRAEIETKGVWHRPSEYGEPYPITKALIEDGRNHLVLDGMIEVGCPVRILQGKQDEDVPWRHAFELAERLPTDDVVLTMIQDGDHRLSRPQDIARMLAAVEE	failed
RAVAGWGARPSAAPARRRARSLGVPYIALEDGFLRSFGTGRHFPPLSLVVDRLGIYYDATRESELECLLASSRTLLDGIEDAVPEAMELVRERRLSKYNQGCFLATGVPADGRRRVLVVDQTEGDMSVTLGCAEAATFEAMLAAARAESPGALICVKTHPEVAAGDKSGYLSRVTDDADTVALRHDMNPLALLEQMDRVYVVSSQMGFEALMLDKPVTCFGMPWYAGWGVTDDRQRCERRGRARSVEELFAGAYFHYTRYLDPVLH	failed
RDVAFTADGTTAYGTLHVPEHRAGQRLRAALLLPGSGPTDRDGNQPPASLPDTLAQLADTLGKDGVATLRFDKYGTGRTGLGTYQDRPEELDYPAFVRQARAGYESLRDQPETDPHALLVVGHSEGAMTGLLLGGTVSPRPAGLALLQPQAIRMLDLVALQLRAQIAEATRQGQFTPEQQRTVNAAVDAAVTALRERRPVDTADLPSPIARLFEAFQGPNARFVRSDDAVYPPDTAFALRPGTKVLLTCGTHDVQVPCDTTNVLTTALRHAHAHGPGRVVLPGVDHLMHDTDHPATLTPPVLDSL	failed
REIADNTYIVLGTMTLNDFNEYFETDLESDNVDTIAGFYLTGVGTIPSQEEKEHFEVESNGKHLELINDKVKDGRVTKLKILVSE	not failed
RETYPDAVKICNICHSLLIQGQSCETCGIRMHLPCVAKYFQSNAEPRCPHCNDYWPHEIPK	not failed
RFLEDMTIGERREVGTFTFTADAIKTFAAQFDPQPFHLDEEAGKNSLFGGLAASGWHVAAVCMKLMVADAQRESAEAAKRGELVATGGPSPGFRELRWLKPVLAGDTITYYKQVESLRPSDSRPQWGIMQARNTGINQRGEVVFSFLATAFVPRRPNA	failed
RFNPFIHQQDVYVQIDRDGRHLSPGGTEYTLDGYNASGKKEEVTFFAGKELRKNAYLKVKAKGKYVETWEEVKFEDMPDSVQSKLK	not failed
RHQPEINQTPGEAQALFVWRDNQDHRDDIERHYLKMLTSARREVIIANAYFFPGYRLLHAMRNAARRGVRVKLIVQGEPDIPIVKFGAHLLYHYLVKGGVQIYEYRRRPLHGKVALADDHWATVGSSNLDPLSLSLNLEANLIIHDRVFNQTLRDNLNGLIARDCQRIDKTMLPKRNWWRLGVSVMAFHFLRHFPAWVGWLP	failed
RIGDGSPSHPPILERTLDDVPGPPMGILFPEVRTTSVRLIWQPPAAPNGIILAYQITHRLNTTTANTATVEVLAPSARQYTATGLKPESVYLFRITAQTRKGWGEAAEALVVTTEKR	not failed
RIKPGPNGRALLFIHGTFSTTDGSFGDLASAEFFGELARTYGNAIYGFDHYSVSVTPEKNASDILKTLPSGGIDCDVVTHSRGGLVLRTLNERQGDLSQGKRFRLQRAALVACPNEGTQLATPDRWQGTLGWLANLLDLFPPNPITSNAALVMHWVTWFAKVGVAAAEG	failed
